Tested on: Y. lipolytica JMY2900
Experiment: qPCR of putative FDH gene transcription upon induction with sodium formate
Format: cell-based, Yarrowia lipolytica
Conditions: YNB with 0.5% sodium formate, 6 h, 28° C., vs absence of formate; qPCR normalised to actin
Description: FIG. 3: Transcription levels of the FDH genes of Yarrowia lipolytica W29 measured by qPCR, normalised to actin (ACT1) expression. Yarrowia lipolytica was grown in YNB supplemented with 1% glucose and 0.5% yeast extract at 15 h at 28° C., before being washed and transferred into YNB with 0.5% of sodium formate for induction and grown for 6 h.
The inducibility of the putative FDH genes with formate was then tested by qPCR. YALI0E14256g1_1 and the nine putative FDH with the highest % identity to YALI0E14256g1_1 were selected for testing. Y. lipolytica JMY2900 was cultured in YNB media supplemented with 1% glucose and 0.5% yeast extract for 15 h at 28° C. Cells were washed with distilled water and cultured in fresh liquid YNB media supplemented with 0.5% sodium formate at 28° C. with agitation at 160 rpm, before being harvested at 6 h post-inoculated. Cells were frozen in liquid nitrogen and stored at −80° C. RNA was subsequently extracted using the RNeasy Mini Kit (Qiagen), and 2 μg was treated with DNAse (Ambion; Life Science Technologies, Saint-Aubain, France). cDNA was synthesised using the Maxima First Strand cDNA synthesis kit (Thermo Fischer Scientific, Villebon sur Yvette, France). qPCR was then performed using the SYBRgreen mastermix (Thermo Fischer Scientific) with gene-specific primers designed using Primer3 software. Relative expression levels were calculated using ΔCT and ΔΔCT methods. Expression levels were normalised to actin.

Molecule | Fold increase on induction (fold change expression of putative FDH genes upon induction with sodium formate)
Yali0C08074: putative Y. lipolytica FDH gene; promoter region SEQ ID NO: 5 (1 Kb) and 21 (1.5 Kb) (nucleic acid, listed as Yarrowia lipolytica, YALI0C08074g) DNA: ATGAAGGTCCTTCTTGTTCTTTACGATGCTGGCTCCCATGCCAAGGATGAGCCCAAGCTGCTTGGATGCACCGAGAACGAGCTCGGTATCAGAGACTGGCTCGAGTCTCAGGGACATACCCTTGTAACTACGTCTTCCAAGGACGGTGCCGACTCTGTCCTCGACAAGGAGATTGTCGATGCCGATGTAGTCATCACCACCCCCTTTCATCCTGGATACATCAACAAGGAGCGAATCGACAAAGCCAAGAAGCTCAAGATTTGCATCACTGCTGGTGTCGGCTCTGACCACGTCGATCTCGACGCTGCCAACGCCCGAGATATTGCTGTTCTCGAAGTCACCGGCTCCAATGTCCAGTCTGTTGCCGAGCACGTTATCATGACCATGTTGGTCCTGGTGCGAAACTTTGTCCCTGCTCACGAGCAGATCATCTCTGGCGGTTGGGACGTTGCTGCTGTTGCCAAGGACTCATACGATCTCGAGGGTAAGGTCATCGGCACCGTTGGAGGAGGCCGAATTGGCCAGCGAGTGCTCAAGCGATGCAAGCCCTTCGACCCCATGGAGATGCTCTACTACGACTATCAGGCCATGCCAGCTGACGTTGAGAAGGAGATTGGATGTCGTCGAGTCGAGTCTCTCGAGGAGATGCTCTCTCTTTGTGACGTGGTCACCATCAACTGCCCTCTGCACGCTTCCACCAAGGGCCTGTTCAACAAAGAGCTCATCTCGCACATGAAGGATGGTGCCTGGCTCGTTAACACCGCTCGAGGAGCCATTTGTGTCACCGAGGACATTGTCGAGGCTCTCGAGTCCGGTAAGATCCGAGGTTACGGCGGAGACGTTTGGTTCCCCCAGCCTGCCCCTAAGGACCACCCCTGGAGAACCATGCGAAACAAGTACGGGGGAGGAAACGCCATGACTCCTCATATCTCCGGAACTTCCATCGACGCCCAGGGCCGATATGCCGAGGGCACCAAGAAGATCCTTGAGGTTTTCTTTTCTGGAAAGCAGGATTATCGACCCCAGGACATTATCTGCATCAATGGTCACTACGGCACAAAAGCTTACGGAGATGACAAGGAGCACAAGGAGCACCAGCTCAAGTAAATATATATAGCTAGAAACATATCTCGTTGTTGCTT | 3.7 fold
Yali0A21353: putative Y. lipolytica FDH gene; promoter region SEQ ID NO: 2 (1 Kb) and 18 (1.5 Kb) (nucleic acid, listed as Yarrowia lipolytica, YALI0A12353g) DNA: ATGAAGGTCCTTCTTATTCTCTACGATGCCGGCTCCCACGCCAAGGACGAGCCCAAGCTGCTTGGATGCACCGAGAACGAGCTTGGTATTCGAGACTGGCTCGAGTCGCAGGGCCACACTCTCGTCACCACCTCTTCCAAGGACGGTGCCGACTCTGTGCTTGACAAGGAGATTGTTGACGCTGATGTAGTCATCACCACCCCGTTCCACCCCGGCTACATCAACAAGGAGCGAATTGACAAGGCCAAGAAGCTCAAGATCTGCATCACCGCCGGTGTCGGCTCCGACCACGTGGACCTCGATGCTGCCAACGCCCGAAACATTGCCGTTCTCGAGGTCACCGGCTCGAACGTCCAGTCCGTCGCTGAGCATGTTGTCATGACCATGCTGGTGCTGGTCCGAAACTTTGTCCCTGCCCACGAGCAGATTATTTCTGGCGGCTGGGACGTTGCTGCGGTTGCCAAGGACTCTTACGATCTCGAGGGCAAGGTCATCGGTACCGTTGGAGGCGGTCGAATCGGCCAGCGAGTGCTCAAGCGATGCAAGCCCTTTGACCCCATGGAGATGCTCTACTACGACTACCAGGCTATGCCAGCTGATGTGGAGAATGAGATTGGATGCCGACGAGTCGAGTCTCTGGAGGAGATGCTCTCTCTCTGTGACGTTGTAACCATCAACTGTCCTCTCCATGCCTCCACCAAGGGTCTCTTCAACAAGGAGCTCATTTCCCACATGAAGGACGGCGCTTGGCTCGTCAACACTGCTCGAGGAGCCATCTGCGTCACCGAGGACATTGTCGACGCTCTCGAGTCCGGCAAGATCCGAGGCTACGGTGGTGACGTCTGGTTCCCCCAGCCTGCCCCCAAGGACCACCCCTGGAGAACCATGCGAAACAAGTACGGCGGTGGAAACGCCATGACTCCCCATATCTCCGGTACTTCCATCGACGCCCAGGGCCGATACGCTGAGGGTACCAAGAAGATTCTTGAGGTCTTTTTCTCTGGCAAGCAGGATTACCGCCCCCAGGACATTATCTGCATCAACGGTCACTACGGTACCAAGGCTTACGGTGACGACAAGGAGCACAAGGCCCACGTTTCCAAGTAGCTGTTTAACTTATATAAGCAATTGACTGGATTTGATAACGA | 7.9 fold
